To fix the notation:
B1: Elongation factor Ts, mitochondrial (Homo sapiens), P43897-2 (parent)
chain: MSLLRSLRVFLVARTGSYPAGSLLRQSPQPRHTFYAGPRLSASASSKELLMKLRRKTGYSFVNCKKALETCGGDLKQAEIWLHKEAQKEGWSKAAKLQGRKTKEGLIGLLQEGNTTVLVEVNCETDFVSRNLKFQLLVQQVALGTMMHCQTLKDQPSAYSKVQWLTPVNLALWEAEAGGSLEGFLNSSELSGLPAGPDREGSLKDQLALAIGKLGENMILKRAAWVKVPSGFYVGSYVHGAMQSPSLHKLVLGKYGALVICETSEQKTNLEDVGRRLGQHVVGMAPLSVGSLDDEPGGEAETKMLSQPYLLDPSITLGQYVQPQGVSVVDFVRFECGEGEEAAETE
B2: PiggyBac transposable element-derived protein 1 (Homo sapiens), Q96JS3 (parent)
chain: MYEALPGPAPENEDGLVKVKEEDPTWEQVCNSQEGSSHTQEICRLRFRHFCYQEAHGPQEALAQLRELCHQWLRPEMHTKEQIMELLVLEQFLTILPKELQPCVKTYPLESGEEAVTVLENLETGSGDTGQQASVYIQGQDMHPMVAEYQGVSLECQSLQLLPGITTLKCEPPQRPQGNPQEVSGPVPHGSAHLQEKNPRDKAVVPVFNPVRSQTLVKTEEETAQAVAAEKWSHLSLTRRNLCGNSAQETVMSLSPMTEEIVTKDRLFKAKQETSEEMEQSGEASGKPNRECAPQIPCSTPIATERTVAHLNTLKDRHPGDLWARMHISSLEYAAGDITRKGRKKDKARVSELLQGLSFSGDSDVEKDNEPEIQPAQKKLKVSCFPEKSWTKRDIKPNFPSWSALDSGLLNLKSEKLNPVELFELFFDDETFNLIVNETNNYASQKNVSLEVTVQEMRCVFGVLLLSGFMRHPRREMYWEVSDTDQNLVRDAIRRDRFELIFSNLHFADNGHLDQKDKFTKLRPLIKQMNKNFLLYAPLEEYYCFDKSMCECFDSDQFLNGKPIRIGYKIWCGTTTQGYLVWFEPYQEESTMKVDEDPDLGLGGNLVMNFADVLLERGQYPYHLCFDSFFTSVKLLSALKKKGVRATGTIRENRTEKCPLMNVEHMKKMKRGYFDFRIEENNEIILCRWYGDGIISLCSNAVGIEPVNEVSCCDADNEEIPQISQPSIVKVYDECKEGVAKMDQIISKYRVRIRSKKWYSILVSYMIDVAMNNAWQLHRACNPGASLDPLDFRRFVAHFYLEHNAHLSD

The values below come from IntAct's records for PubMed 25910212.

One assay covers variants of B1. The following applies: with pp12c_human PPP1R12C.
Turning to R333W, the “effect of a mutation on the interaction” value was “disrupting interaction strength”.

In the next assay the parent is B2. The following applies: with NR4A1, P22736-2.
Sequence of NR4A1, P22736-2 (P22736 other isoform, or with tags, fused parts or gaps): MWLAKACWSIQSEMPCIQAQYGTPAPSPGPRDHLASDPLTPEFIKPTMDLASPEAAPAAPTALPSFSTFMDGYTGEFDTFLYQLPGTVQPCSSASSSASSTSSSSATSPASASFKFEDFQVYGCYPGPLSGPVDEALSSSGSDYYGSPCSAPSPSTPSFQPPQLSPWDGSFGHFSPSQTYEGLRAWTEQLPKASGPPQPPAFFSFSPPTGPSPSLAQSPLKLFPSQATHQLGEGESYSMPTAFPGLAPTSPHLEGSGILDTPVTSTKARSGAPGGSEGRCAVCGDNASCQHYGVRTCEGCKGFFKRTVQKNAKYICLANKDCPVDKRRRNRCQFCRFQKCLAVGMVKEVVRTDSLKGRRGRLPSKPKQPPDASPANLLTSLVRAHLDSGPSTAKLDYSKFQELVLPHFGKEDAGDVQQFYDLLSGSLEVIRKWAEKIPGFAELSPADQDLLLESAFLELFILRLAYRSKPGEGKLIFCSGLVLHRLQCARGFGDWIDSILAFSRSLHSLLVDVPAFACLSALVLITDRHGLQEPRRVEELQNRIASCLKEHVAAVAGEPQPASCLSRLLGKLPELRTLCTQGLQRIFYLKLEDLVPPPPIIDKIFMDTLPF
For the variant G244E, the “effect of a mutation on the interaction” value is “with no effect”.
Take I678V: the “effect of a mutation on the interaction” value is “with no effect”.
Consider P256L, for which the “effect of a mutation on the interaction” value is reported as “with no effect”.
In the case of Q248E, the “effect of a mutation on the interaction” value was “with no effect”.
As for H806D, the “effect of a mutation on the interaction” value is “with no effect”.

The variants in the next assay derive from B2. The note with it: with znf24_human ZNF24, P17028.
Sequence of znf24_human ZNF24, P17028 (P17028 whole entry): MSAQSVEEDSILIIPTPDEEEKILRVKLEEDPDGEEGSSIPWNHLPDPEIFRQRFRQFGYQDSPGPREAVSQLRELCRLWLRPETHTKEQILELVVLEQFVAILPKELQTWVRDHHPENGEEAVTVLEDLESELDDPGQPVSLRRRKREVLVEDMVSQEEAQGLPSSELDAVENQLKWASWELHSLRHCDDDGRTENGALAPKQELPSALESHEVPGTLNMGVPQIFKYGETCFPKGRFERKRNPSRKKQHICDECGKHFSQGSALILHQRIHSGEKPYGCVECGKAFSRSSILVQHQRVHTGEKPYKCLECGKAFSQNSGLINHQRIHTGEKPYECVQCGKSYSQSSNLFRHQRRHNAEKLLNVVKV
As to G244E, the “effect of a mutation on the interaction” value is recorded as “with no effect”.
As to I678V, the “effect of a mutation on the interaction” value was “with no effect”.
Take P256L: the “effect of a mutation on the interaction” value is on record as “with no effect”.
As for Q248E, the “effect of a mutation on the interaction” value is “with no effect”.
The same measure, in the same setting: with H806D the entry was “with no effect”.

In another assay the parent is B2. The following applies: with zn496_human ZNF496, Q96IT1.
Sequence of zn496_human ZNF496, Q96IT1 (Q96IT1 whole entry): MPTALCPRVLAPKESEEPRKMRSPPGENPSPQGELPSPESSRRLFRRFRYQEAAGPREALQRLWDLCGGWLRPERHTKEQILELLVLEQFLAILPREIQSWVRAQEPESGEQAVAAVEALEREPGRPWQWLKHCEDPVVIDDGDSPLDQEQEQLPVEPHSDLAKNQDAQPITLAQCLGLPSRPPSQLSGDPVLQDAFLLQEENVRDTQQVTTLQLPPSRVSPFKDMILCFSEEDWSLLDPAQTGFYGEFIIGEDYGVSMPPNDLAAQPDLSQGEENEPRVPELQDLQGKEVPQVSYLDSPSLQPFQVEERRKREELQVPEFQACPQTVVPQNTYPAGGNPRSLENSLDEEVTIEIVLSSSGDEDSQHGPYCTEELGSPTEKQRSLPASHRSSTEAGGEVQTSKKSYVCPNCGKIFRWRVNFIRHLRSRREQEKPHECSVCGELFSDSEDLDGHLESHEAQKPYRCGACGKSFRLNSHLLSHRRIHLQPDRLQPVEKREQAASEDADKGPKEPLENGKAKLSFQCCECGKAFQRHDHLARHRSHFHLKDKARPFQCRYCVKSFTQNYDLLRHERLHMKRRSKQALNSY
For G244E, the “effect of a mutation on the interaction” value is “with no effect”.
Consider I678V, for which the “effect of a mutation on the interaction” value is “with no effect”.
P256L: the “effect of a mutation on the interaction” value is given as “with no effect”.
In the case of Q248E, the “effect of a mutation on the interaction” value is reported as “with no effect”.
As for H806D, the “effect of a mutation on the interaction” value is “with no effect”.

The variants in the next assay derive from B2. The note with it: with zsc22_human ZSCAN22, P10073.
Sequence of zsc22_human ZSCAN22, P10073 (P10073 whole entry): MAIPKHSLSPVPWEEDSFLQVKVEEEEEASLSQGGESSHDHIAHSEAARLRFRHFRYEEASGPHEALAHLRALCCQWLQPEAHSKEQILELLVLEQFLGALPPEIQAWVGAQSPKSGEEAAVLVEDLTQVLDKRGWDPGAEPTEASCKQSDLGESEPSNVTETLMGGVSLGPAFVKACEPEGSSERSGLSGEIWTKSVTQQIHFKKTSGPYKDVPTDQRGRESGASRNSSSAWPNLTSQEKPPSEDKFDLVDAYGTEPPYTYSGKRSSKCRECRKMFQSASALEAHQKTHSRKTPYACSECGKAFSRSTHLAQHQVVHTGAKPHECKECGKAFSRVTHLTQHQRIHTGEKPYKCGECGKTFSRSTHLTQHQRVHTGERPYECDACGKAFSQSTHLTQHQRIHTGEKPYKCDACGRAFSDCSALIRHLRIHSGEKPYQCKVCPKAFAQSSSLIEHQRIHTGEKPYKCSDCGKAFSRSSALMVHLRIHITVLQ
G244E: the “effect of a mutation on the interaction” value is recorded as “with no effect”.
With I678V, the “effect of a mutation on the interaction” value was “with no effect”.
For P256L, the “effect of a mutation on the interaction” value is “with no effect”.
Regarding Q248E, the “effect of a mutation on the interaction” value is listed as “with no effect”.
Consider H806D, for which the “effect of a mutation on the interaction” value was “with no effect”.

In a further assay the parent is B2. The note with it: with meox2_human MEOX2, P50222.
Sequence of meox2_human MEOX2, P50222 (P50222 whole entry): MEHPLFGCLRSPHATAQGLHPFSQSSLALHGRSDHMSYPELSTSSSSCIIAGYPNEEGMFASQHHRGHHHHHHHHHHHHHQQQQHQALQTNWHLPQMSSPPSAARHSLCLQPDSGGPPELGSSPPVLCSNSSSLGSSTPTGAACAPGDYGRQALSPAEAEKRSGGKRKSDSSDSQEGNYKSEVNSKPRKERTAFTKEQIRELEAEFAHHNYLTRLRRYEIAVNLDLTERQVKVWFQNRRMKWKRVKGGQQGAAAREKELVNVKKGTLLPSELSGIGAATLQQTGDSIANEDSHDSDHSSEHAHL
In the case of G244E, the “effect of a mutation on the interaction” value is recorded as “with no effect”.
On the same count and under the same terms, to I678V belongs “with no effect”; to P256L, “with no effect”; to Q248E, “with no effect”.
Regarding H806D, the “effect of a mutation on the interaction” value was “with no effect”.
